Test results taken from patent US20260274985A1 (MYTHIC THERAPEUTICS, published 2026).

T1: Human TROP2 Protein, His Tag (Acro Biosystems) (human, UniProt P09758 27-274)
T1 construct: Bought protein; not shown: His tag
T1 sequence (looked up): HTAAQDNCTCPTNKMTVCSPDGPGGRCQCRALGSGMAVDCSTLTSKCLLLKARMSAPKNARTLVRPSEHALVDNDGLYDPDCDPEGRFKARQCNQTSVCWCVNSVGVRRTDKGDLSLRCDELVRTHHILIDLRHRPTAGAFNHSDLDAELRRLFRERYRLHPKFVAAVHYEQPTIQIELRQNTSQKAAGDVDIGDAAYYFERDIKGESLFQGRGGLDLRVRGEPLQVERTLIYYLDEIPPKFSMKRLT

T2: Human TROP2 Protein, His Tag (Acro Biosystems) (human, UniProt P09758 27-274)
T2 construct: also called TACSTD2; not shown: His tag
T2 sequence (looked up): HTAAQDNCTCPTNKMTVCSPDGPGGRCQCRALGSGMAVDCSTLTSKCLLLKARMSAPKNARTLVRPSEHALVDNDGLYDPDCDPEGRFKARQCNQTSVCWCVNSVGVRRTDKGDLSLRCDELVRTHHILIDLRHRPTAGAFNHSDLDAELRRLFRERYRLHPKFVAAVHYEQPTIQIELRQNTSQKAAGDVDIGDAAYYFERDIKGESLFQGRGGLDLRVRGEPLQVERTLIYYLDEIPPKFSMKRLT

T3: Human TROP2 Protein, His Tag (human, UniProt P09758 27-274)
T3 construct: Bought protein; also called TACSTD2; not shown: His tag
T3 sequence (looked up): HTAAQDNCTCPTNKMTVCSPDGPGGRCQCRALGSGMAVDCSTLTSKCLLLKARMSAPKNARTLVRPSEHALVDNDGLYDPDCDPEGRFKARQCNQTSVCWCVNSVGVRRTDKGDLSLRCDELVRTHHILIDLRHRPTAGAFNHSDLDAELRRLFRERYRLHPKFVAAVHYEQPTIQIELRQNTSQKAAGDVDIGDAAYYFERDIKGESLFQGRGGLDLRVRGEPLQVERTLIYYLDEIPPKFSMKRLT

T4: Human TROP2 Protein, His Tag (Acro Biosystems) (human, UniProt P09758 27-274)
T4 construct: not shown: His tag
T4 sequence (looked up): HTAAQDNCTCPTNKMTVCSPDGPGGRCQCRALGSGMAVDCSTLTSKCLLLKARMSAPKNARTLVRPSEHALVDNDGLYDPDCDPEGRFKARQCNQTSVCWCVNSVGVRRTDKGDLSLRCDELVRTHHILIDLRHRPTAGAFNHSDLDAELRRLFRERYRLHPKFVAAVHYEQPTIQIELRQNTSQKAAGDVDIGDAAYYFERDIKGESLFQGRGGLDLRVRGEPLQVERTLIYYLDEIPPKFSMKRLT

B1: MYT11616 (antibody, V domains shown)
VH: QVQLQQSGSELKKPGASVKVSCKASGYTFTNYGMNWVKQAPGQGLKWMGWINTYTGEPTYTDDFKGRFAFSLDTSVSTAYLQISSLKADDTAVYFCARGGFGSSYWYFDVWGQGSLVTVSS
VL: DIQLTQSPSSLSASVGDRVSITCKASQDVSIHVAWYQQKPGKAPKLLIYSASYRYTGVPDRFSGSGSGTDFTLTISSLQPEDFAVYYCQQHYITPLTFGAGTKVEIK
notes: Sacituzumab variant, His at LCV position 32 (L1 09)
B2: MYT13251 (antibody, V domains shown)
VH: QVQLQQSGSELKKPGASVKVSCKASGYTFTNYGMNWVKQAPGQGLKWMGWINTYTGEPTYTHDFKGRFAFSLDTSVSTAYLQISSLKADDTAVYFCARGGFGSSYWYFDVWGQGSLVTVSS
VL: DIQLTQSPSSLSASVGDRVSITCKASQDVSIAVAWYQQKPGKAPKLLIYSAHYRYTGVPDRFSGSGSGTDFTLTISSLQPEDFAVYYCQQHYHTPLTFGAGTKVEIK
notes: Sacituzumab HC-LC pairing variant
B3: MYT11619 (antibody, V domains shown)
VH: QVQLQQSGSELKKPGASVKVSCKASGYTFTNYGMNWVKQAPGQGLKWMGWINTYTGEPTYTDDFKGRFAFSLDTSVSTAYLQISSLKADDTAVYFCARGGFGSSYWYFDVWGQGSLVTVSS
VL: DIQLTQSPSSLSASVGDRVSITCKASQDVSIAVAWYQQKPGKAPKLLIYHASYRYTGVPDRFSGSGSGTDFTLTISSLQPEDFAVYYCQQHYITPLTFGAGTKVEIK
notes: Sacituzumab variant, His at LCV position 50 (L2 01)
B4: MYT11688 (antibody, V domains shown)
VH: QVQLVQSGAEVKKPGASVKVSCKASGYTFTTAGMQWVRQAPGQGLEWMGWINTHSGVPKYAEDFKGRVTISADTSTSTAYLQLSSLKSEDTAVYYCARSGFGSSYWYFDVWGQGTLVTVSS
VL: DIQMTQSPSSLSASVGDRVTITCKASQDVSTAVAWYQQKPGKAPKLLIYHASYRYTGVPSRFSGSGSGTDFTLTISSLQPEDFAVYYCQQHYITPLTFGQGTKLEIK
notes: IgG from supernatant; His at LCV position 50; also called datopotamab variant L2 01
B5: MYT12399 (antibody, V domains shown)
VH: QVQLVQSGAEVKKPGASVKVSCKASGYTFTTAGMQWVRQAPGQGLEWMGWINTHSGVPKYAEDFKGRVTISADTSTSTAYLQLSSLKSEDTAVYYCARSGFGSSYWYFDVWGQGTLVTVSS
VL: DIQMTQSPSSLSASVGDRVTITCKASQHVSTAVAWYQQKPGKAPKLLIYSHSYRYTGVPSRFSGSGSGTDFTLTISSLQPEDFAVYYCHQHYITPLTFGQGTKLEIK
notes: datopotamab VL 28, 51, 89 substituted
B6: MYT11687 (antibody, V domains shown)
VH: QVQLVQSGAEVKKPGASVKVSCKASGYTFTTAGMQWVRQAPGQGLEWMGWINTHSGVPKYAEDFKGRVTISADTSTSTAYLQLSSLKSEDTAVYYCARSGFGSSYWYFDVWGQGTLVTVSS
VL: DIQMTQSPSSLSASVGDRVTITCKASQDVSTAVHWYQQKPGKAPKLLIYSASYRYTGVPSRFSGSGSGTDFTLTISSLQPEDFAVYYCQQHYITPLTFGQGTKLEIK
notes: IgG from supernatant; His at LCV position 34; also called datopotamab variant L1 11

What was measured:
[1] = target: T1, Human TROP2 Protein, His Tag (Acro …); assay: BLI (Octet), Ab on anti-human Fc sensor, 50 nM TROP2-His; 1 = pH dependent
Method: After allowing for four days of protein expression, cell culture supernatants were collected, quantified by SDS-PAGE analysis (DNS), and the pH dependence of the variant was evaluated using biolayer interferometry (BLI) on an Octet RED 96e instrument. Briefly, cell culture supernatants were diluted based on qualitative expression level of the variant determined by visual examination of SDS-PAGE gels, 5 μL of cell culture supernatant was diluted into 195 μL of 1×PBST, pH 7.4 for high expressors, 25 μL of cell culture supernatant was diluted into 175 μL of 1×PBST, pH 7.4 for medium expressors and 100 μL of cell culture supernatant was diluted into 100 μL of 1×PBST, pH 7.4 for low expressors for loading onto the sensor tips. The resulting diluted supernatants were then captured on an anti-human Fc sensor (Forte Bio). A baseline was established using 1×PBST (50 mM Potassium Phosphate Buffer+150 mM NaCl+0.05% Tween 20) pH 7.4, and the sensor was associated with 50 nM of TROP2 (Human TROP2 Protein, His Tag, Acro Biosystems) in 1×PBST pH 7.4 for 120 sec to generate an association curve. In the dissociation phase, the antibody-antigen complex on the sensor was exposed to 1×PBST pH 7.4 or pH 5.4, for 300 sec. […]

[2] = target: T2, Human TROP2 Protein, His Tag (Acro …); assay: BLI (Octet) [1/2]
[3] = target: T3, Human TROP2 Protein, His Tag; assay: BLI (Octet), IgG on anti-human Fc sensor, 50 nM human TROP2-His; legend: 1 = pH dependent
[4] = target: T4, Human TROP2 Protein, His Tag (Acro …); assay: Octet BLI, IgG on anti-human Fc sensor, 50 nM TROP2-His; 1 = pH dependent

Binder | binding result [1] | binding result [3] | other results
B1 | binds |  | 
B2 |  |  | binding result [2]: binds
B3 | binds |  | 
B4 |  | binds | 
B5 |  |  | binding result [4]: binds
B6 |  | binds | 
